Source: patent publication US20160222130A1 (Astellas, published 2016)
Read-outs that look alike come from different tables or passages of the source.

Columns and labels:
Experiment in all cases: ELISA; Tie2-Fc coated at 1 ug/mL; signal at 100 ng/mL antibody vs convergence value on the parent
Human Tie2 (1-452)r2-Fc = molecular target: T1, Human Tie2 (1-452)r2-Fc (human, UniProt Q02763 23-452)
T1 construct: range 1-452
Protocol: (§1) The next day, the immobilized solution was removed, and the plate was washed with a TBS-T solution, and incubated for 60 minutes by the addition of 50 μL of a Blocker™ Casein in TBS (Thermo Fisher Scientific Inc., 37532) to perform blocking. The resultant was washed with a TBS-T solution, and TIE-1-Igγ1-LALA, diluted with 0.05% Tween 20 (Nacalai Tesque Inc., 28353-85)—containing Blocker™ Casein in TBS from 0.03 ng/mL to 100 ng/mL through eight steps, was added thereto in the amount of 20 μL per well. The resultant was incubated at room temperature for 90 minutes and then washed with a TBS-T solution three times, and 20 μL of a biotin-labeled anti-human kappa light chain antibody, which had been diluted to 0.1 μg/mL with 0.05% Tween 20-containing Blocker™ Casein in TBS, was added thereto. The resultant was incubated at room temperature for 60 minutes and then washed with a TBS-T solution three times, and 20 μL of alkaline phosphatase-labeled streptavidin, which had been diluted to 0.1 μg/mL with 0.05% Tween 20-containing Blocker™ Casein in TBS, was added thereto. The resultant was incubated at room temperature for 60 minutes and then washed with a TBS-T solution three times, and 50 μL of Chemiluminescent Ultra Sensitive AP Microwell and/or Membrane Substrate (450 nm), which had been 5-fold diluted with 1 mM MgCl₂-containing 20 mM TBS (pH 9.8) as a substrate, was added thereto. The resultant was incubated at room temperature under light-shielding for 40 minutes, and then luminescent intensity thereof was measured with an EnVision™ multi-label counter. The EC₅₀ value of TIE-1-Igγ1-LALA with respect to the human Tie2 (1-452)-Fc chimeric protein and 23 mutant proteins thereof were calculated. The relative value of luminescent intensity of 100 ng/mL TIE-1-Igγ1-LALA as maximum concentration point with respect to human Tie2 (1-452)-Fc chimeric protein and 23 mutant proteins thereof when the convergence value of the sigmoid curve of TIE-1-Igγ1-LALA binding to the human Tie2 (1-452)-Fc chimeric protein which was taken as 100% was calculated (Table 8 and Table 9). Further, the EC₅₀ value and the convergence value were calculated by Sigmoid-Emax model non-linear regression analysis.

Human Tie2 (1-452)r3-Fc = molecular target: T2, Human Tie2 (1-452)r3-Fc (human, UniProt Q02763 23-452)
T2 construct: range 1-452
T2 sequence (Q02763 other isoform, or with tags, fused parts or gaps limits assumed, form in doubt): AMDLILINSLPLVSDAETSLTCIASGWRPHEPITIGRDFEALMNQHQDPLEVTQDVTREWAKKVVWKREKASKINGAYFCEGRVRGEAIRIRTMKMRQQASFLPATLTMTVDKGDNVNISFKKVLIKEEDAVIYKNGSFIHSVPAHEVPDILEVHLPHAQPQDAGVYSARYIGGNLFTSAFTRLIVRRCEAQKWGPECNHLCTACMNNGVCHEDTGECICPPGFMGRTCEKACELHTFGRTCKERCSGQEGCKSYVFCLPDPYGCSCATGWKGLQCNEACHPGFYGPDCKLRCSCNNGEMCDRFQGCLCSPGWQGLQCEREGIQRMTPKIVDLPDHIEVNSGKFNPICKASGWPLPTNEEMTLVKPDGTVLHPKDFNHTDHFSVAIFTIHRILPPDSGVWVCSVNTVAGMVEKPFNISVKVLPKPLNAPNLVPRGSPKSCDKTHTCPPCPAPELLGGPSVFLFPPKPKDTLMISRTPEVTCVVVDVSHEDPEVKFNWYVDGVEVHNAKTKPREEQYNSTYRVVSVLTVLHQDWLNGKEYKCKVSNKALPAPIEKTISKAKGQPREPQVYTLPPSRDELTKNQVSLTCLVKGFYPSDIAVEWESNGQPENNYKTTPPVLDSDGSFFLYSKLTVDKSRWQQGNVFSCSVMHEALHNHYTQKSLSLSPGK
Protocol: as §1

Human Tie2 (1-452)r4-Fc = molecular target: T3, Human Tie2 (1-452)r4-Fc (human, UniProt Q02763 23-452)
T3 construct: range 1-452
Protocol: as §1

Human Tie2 (1-452)r6-Fc = molecular target: T4, Human Tie2 (1-452)r6-Fc (human, UniProt Q02763 23-452)
T4 construct: range 1-452
T4 sequence (Q02763 other isoform, or with tags, fused parts or gaps limits assumed, form in doubt): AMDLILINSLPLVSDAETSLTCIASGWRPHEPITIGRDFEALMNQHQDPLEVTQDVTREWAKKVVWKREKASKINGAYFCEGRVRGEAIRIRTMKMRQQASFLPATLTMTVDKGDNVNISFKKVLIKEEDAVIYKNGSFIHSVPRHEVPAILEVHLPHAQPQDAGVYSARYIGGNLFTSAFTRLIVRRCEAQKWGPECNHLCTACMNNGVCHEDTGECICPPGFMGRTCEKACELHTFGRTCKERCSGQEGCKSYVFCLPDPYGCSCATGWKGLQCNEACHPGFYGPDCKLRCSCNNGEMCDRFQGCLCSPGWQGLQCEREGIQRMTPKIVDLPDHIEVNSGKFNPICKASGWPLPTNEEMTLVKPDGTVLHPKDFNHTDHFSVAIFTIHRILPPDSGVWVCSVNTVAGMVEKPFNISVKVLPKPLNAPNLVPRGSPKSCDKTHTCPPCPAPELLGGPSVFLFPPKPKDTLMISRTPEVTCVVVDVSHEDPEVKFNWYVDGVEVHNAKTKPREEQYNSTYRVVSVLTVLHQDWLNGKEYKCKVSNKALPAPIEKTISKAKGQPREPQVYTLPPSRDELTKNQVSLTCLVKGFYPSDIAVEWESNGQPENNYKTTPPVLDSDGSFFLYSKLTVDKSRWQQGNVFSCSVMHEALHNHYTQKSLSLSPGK
Protocol: as §1

Human Tie2 (1-452)r7-Fc = molecular target: T5, Human Tie2 (1-452)r7-Fc (human, UniProt Q02763 23-452)
T5 construct: range 1-452
Protocol: as §1

Human Tie2 (1-452)g1-Fc = molecular target: T6, Human Tie2 (1-452)g1-Fc (human, UniProt Q02763 23-452)
T6 construct: range 1-452
Protocol: as §1

Human Tie2 (1-452)g4-Fc = molecular target: T7, Human Tie2 (1-452)g4-Fc (human, UniProt Q02763 23-452)
T7 construct: range 1-452
Protocol: as §1

Human Tie2 (1-452)g5-Fc = molecular target: T8, Human Tie2 (1-452)g5-Fc (human, UniProt Q02763 23-452)
T8 construct: range 1-452
Protocol: as §1

Human Tie2 (1-452)g6-Fc = molecular target: T9, Human Tie2 (1-452)g6-Fc (human, UniProt Q02763 23-452)
T9 construct: range 1-452
Protocol: as §1

Human Tie2 (1-452)m3-Fc = molecular target: T10, Human Tie2 (1-452)m3-Fc (human, UniProt Q02763 23-452)
T10 construct: range 1-452
T10 sequence (Q02763 other isoform, or with tags, fused parts or gaps limits assumed, form in doubt): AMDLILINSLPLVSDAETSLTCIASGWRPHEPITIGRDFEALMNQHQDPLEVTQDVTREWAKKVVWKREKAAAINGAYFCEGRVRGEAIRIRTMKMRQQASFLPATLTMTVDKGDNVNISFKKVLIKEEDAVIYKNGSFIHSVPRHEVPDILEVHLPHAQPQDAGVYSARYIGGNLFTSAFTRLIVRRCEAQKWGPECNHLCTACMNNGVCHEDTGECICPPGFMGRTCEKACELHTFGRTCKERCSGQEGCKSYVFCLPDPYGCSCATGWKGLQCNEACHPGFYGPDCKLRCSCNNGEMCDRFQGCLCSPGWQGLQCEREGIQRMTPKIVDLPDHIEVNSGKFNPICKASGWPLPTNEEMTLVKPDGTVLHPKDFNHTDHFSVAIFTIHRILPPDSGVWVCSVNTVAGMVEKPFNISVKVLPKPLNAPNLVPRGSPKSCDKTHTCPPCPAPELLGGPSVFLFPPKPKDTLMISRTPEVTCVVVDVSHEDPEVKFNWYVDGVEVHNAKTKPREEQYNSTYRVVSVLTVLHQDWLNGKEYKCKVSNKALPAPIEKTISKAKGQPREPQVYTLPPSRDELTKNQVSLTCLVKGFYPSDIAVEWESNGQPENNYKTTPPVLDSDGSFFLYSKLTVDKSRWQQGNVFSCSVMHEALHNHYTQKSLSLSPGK
Protocol: as §1

[1] = molecular target: T11, human Tie2 (1-452)-Fc chimeric protein (human, UniProt Q02763 23-452)
T11 construct: range 1-452; The stated range 1-452 begins at residue 1 of the precursor
T11 sequence (Q02763 other isoform, or with tags, fused parts or gaps mutant limits assumed, form in doubt): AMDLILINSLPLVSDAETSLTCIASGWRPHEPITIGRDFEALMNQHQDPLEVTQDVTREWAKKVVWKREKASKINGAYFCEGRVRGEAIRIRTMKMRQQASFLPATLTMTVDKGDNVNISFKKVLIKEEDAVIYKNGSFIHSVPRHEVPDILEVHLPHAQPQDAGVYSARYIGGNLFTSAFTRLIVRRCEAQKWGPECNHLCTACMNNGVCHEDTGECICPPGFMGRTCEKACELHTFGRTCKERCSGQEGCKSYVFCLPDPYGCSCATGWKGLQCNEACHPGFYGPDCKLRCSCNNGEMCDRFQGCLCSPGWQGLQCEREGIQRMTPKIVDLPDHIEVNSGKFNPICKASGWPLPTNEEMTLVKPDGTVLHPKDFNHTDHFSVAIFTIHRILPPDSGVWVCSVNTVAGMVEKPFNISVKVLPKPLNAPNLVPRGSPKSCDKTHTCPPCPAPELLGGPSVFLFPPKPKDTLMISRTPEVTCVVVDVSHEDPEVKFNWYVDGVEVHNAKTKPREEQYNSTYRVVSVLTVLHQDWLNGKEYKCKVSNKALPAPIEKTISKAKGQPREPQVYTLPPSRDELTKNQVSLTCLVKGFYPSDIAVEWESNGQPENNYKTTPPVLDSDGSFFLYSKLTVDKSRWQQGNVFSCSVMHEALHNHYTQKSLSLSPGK
Protocol: as §1

Human Tie2 (1-452)A1-Fc = molecular target: T12, Human Tie2 (1-452)A1-Fc (human, UniProt Q02763 23-452)
T12 construct: range 1-452
T12 sequence (Q02763 other isoform, or with tags, fused parts or gaps limits assumed, form in doubt): as the sequence (Q02763 other isoform, or with tags, fused parts or gaps mutant limits assumed, form in doubt) above, with E129A counted along it
Protocol: as §1

Human Tie2 (1-452)A2-Fc = molecular target: T13, Human Tie2 (1-452)A2-Fc (human, UniProt Q02763 23-452)
T13 construct: range 1-452
Protocol: as §1

Human Tie2 (1-452)A3-Fc = molecular target: T14, Human Tie2 (1-452)A3-Fc (human, UniProt Q02763 23-452)
T14 construct: range 1-452
Protocol: as §1

Human Tie2 (1-452)A6-Fc = molecular target: T15, Human Tie2 (1-452)A6-Fc (human, UniProt Q02763 23-452)
T15 construct: range 1-452
Protocol: as §1

[2] = molecular target: T11, human Tie2 (1-452)-Fc chimeric protein; remark: listed apart in the source
Protocol: as §1

T1 sequence (Q02763 other isoform, or with tags, fused parts or gaps limits assumed, form in doubt): as the sequence (Q02763 other isoform, or with tags, fused parts or gaps mutant limits assumed, form in doubt) above, with D150A, I151A counted along it

Relative value (%) of luminescent intensity (Human Tie2 (1-452)r2-Fc): 96% | Relative value (%) of luminescent intensity (Human Tie2 (1-452)r3-Fc): 102% | Relative value (%) of luminescent intensity (Human Tie2 (1-452)r4-Fc): 101% | Relative value (%) of luminescent intensity (Human Tie2 (1-452)r6-Fc): 100% | Relative value (%) of luminescent intensity (Human Tie2 (1-452)r7-Fc): 100% | Relative value (%) of luminescent intensity (Human Tie2 (1-452)g1-Fc): 3% | Relative value (%) of luminescent intensity (Human Tie2 (1-452)g4-Fc): 53% | Relative value (%) of luminescent intensity (Human Tie2 (1-452)g5-Fc): 91% | Relative value (%) of luminescent intensity (Human Tie2 (1-452)g6-Fc): 105% | Relative value (%) of luminescent intensity (Human Tie2 (1-452)m3-Fc): 103% | Relative value (%) of luminescent intensity [1]: 97% | Relative value (%) of luminescent intensity (Human Tie2 (1-452)A1-Fc): 90% | Relative value (%) of luminescent intensity (Human Tie2 (1-452)A2-Fc): 95% | Relative value (%) of luminescent intensity (Human Tie2 (1-452)A3-Fc): 98% | Relative value (%) of luminescent intensity (Human Tie2 (1-452)A6-Fc): 99% | Relative value (%) of luminescent intensity [2]: 98%
B1: TIE-1-Igγ1-LALA (antibody, human IgG1, kappa, L234A L235A)
heavy: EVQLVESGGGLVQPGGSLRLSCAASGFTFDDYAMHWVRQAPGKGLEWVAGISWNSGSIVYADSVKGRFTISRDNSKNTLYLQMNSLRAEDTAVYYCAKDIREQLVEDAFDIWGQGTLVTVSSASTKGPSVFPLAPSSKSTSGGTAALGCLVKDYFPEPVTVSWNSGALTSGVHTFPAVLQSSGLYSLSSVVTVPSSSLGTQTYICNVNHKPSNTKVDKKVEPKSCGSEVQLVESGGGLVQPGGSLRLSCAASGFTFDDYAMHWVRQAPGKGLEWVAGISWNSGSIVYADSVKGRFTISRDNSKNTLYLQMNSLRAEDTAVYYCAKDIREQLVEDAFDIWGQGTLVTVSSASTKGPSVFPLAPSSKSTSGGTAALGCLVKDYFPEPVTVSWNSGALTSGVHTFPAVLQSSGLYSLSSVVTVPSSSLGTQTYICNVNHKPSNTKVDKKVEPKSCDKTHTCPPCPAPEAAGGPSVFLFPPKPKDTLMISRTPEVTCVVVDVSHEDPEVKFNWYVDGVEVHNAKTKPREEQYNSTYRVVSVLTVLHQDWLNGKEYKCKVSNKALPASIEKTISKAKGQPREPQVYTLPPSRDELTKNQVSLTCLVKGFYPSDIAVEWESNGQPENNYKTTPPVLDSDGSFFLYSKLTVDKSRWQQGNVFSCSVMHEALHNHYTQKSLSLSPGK
light: DIQMTQSPSSLSASVGDRVTITCRSSQSLLHSHRYNYLDWYQQKPGKAPKLLIYLGSNRASGVPSRFSGSGSGTDFTLTISSVQPEDFATYYCMQTLQTPLTFGQGTKVEIKRTVAAPSVFIFPPSDEQLKSGTASVVCLLNNFYPREAKVQWKVDNALQSGNSQESVTEQDSKDSTYSLSSTLTLSKADYEKHKVYACEVTHQGLSSPVTKSFNRGEC
notes: Tandem tetravalent format: two heavy chains (VH-CH1-linker-VH-CH1-CH2-CH3) and four light chains; also called tetravalent anti-human Tie2 antibody with L234A, L235A and P331S
